For assay [1], the target named is T1, human TIGIT expressed on cells (TIGIT/Jurkat cells; MJ[G11] cells; PBMC T cells) (human, UniProt Q495A1 22-244).
T1 construct: The cell line is named under assay; also called human TIGIT-expressing Jurkat cells
T1 sequence: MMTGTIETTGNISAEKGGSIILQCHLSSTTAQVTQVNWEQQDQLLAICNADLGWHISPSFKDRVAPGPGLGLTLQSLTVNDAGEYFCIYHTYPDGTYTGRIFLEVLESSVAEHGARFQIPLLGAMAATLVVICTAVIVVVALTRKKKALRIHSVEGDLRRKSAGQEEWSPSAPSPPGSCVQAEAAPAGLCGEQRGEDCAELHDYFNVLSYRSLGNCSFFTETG
Description: flow cytometry competition on TIGIT/Jurkat cells; competitor DyLight 650-CD155-human Fc at 1 µg/ml. From the text:
(§1) Anti-TIGIT antibodies, including hz7D4, and reference antibodies (15A6 and 1D3) were used to compete with CD155 for binding to cells expressing human TIGIT. MJ[G11] (American Type Culture Collection (ATCC), CRL-8294) is a CD3+CD4+T lymphoma cell line carrying human T cell leukemia virus (HTLV-I). MJ[G11] cells were characterized by immunostaining with regulatory T cell phenotypic antibody markers, including CD4, CD25, CD127, and FoxP3, and found to be a regulatory T cell-like cell line (FIG. 9A). Moreover, MJ[G11] cells express human TIGIT constitutively, as shown by immunostaining with PE-conjugated anti-human TIGIT, MBSA43 antibody (FIG. 9B). A sequential 3-fold dilution of anti-TIGIT antibodies was added to 5×10⁵ of human TIGIT-expressing Jurkat cells or 3×10⁵ of MJ[G11] cells in 50 μl FACS buffer (0.2% BSA in DPBS containing 0.09% sodium azide) and incubated on ice for 30 min. Then, 10 μl of DyLight 650-conjugated CD155-human Fc fusion protein were added to the cells, to reach a final concentration of 1 μg/ml for human TIGIT-Jurkat cells and 1.5 μg/ml for MJ[G11] cells, and incubated for 30 min at 4° C. Cells were washed and analyzed by a FACSCalibur cytometer (Becton Dickinson). IC₅₀ values were calculated based on normalized median fluorescence intensity (MFI) values. […]

For assay [2], the target named is T1, human TIGIT expressed on cells …. Description: flow cytometry competition on MJ[G11] cells; competitor DyLight 650-CD155-human Fc at 1.5 µg/ml.
Excerpt: as §1

Assay [3] addresses T2, recombinant human TIGIT IgV domain (human, UniProt Q495A1 22-141, limits assumed).
T2 construct: Made in NS0 or Expi293F cells, purified on Strep-Tactin XT; Biotinylated for phage panning; also called human TIGIT IgV protein; native (Nat) form human TIGIT protein
T2 chain: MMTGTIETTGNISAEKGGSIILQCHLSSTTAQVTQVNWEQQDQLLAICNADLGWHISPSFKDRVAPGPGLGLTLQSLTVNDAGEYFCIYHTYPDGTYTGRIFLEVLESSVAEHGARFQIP
Description: phage display panning on biotinylated human TIGIT IgV domain. On the procedure: (§2) The phages were captured by incubation with 50 μl of M280 streptavidin magnetic beads (Thermo Fisher Scientific) for 15 min. Non-specific phages were eliminated by ten washes with PBS/0.1% Tween-20, followed by 10 washes with PBS for 5 min each. Bound phages were eluted with 0.1 M glycine (pH 2.0), neutralized with 1 M Tris-HCl (pH 8.0) and re-infected into log-phase TG1 cells. In the second panning round, phages (10⁹ cfu) were used against 0.1 nM of the biotinylated cyno TIGIT IgV domain.
(§3) The nucleotide sequences of the phage clones that bind to both human and cyno TIGIT IgV domains were determined. All heavy chain CDR3 (HCDR3) clones contain the wild type HCDR3 amino acid sequence of […] (SEQ ID NO: 3). Two light chain CDR3 (LCDR3) clones screened by the light chain library, designated 1A11 and 1E3, contain LCDR3 amino acid sequences of […] (SEQ ID NO: 23) and […] (SEQ ID NO: 24), respectively.

The target of the next assay is T3, cyno TIGIT IgV domain (cynomolgus monkey).
T3 construct: Biotinylated for phage panning; also called biotinylated cyno TIGIT IgV domain; cynomolgus monkey TIGIT
Description: phage display panning on biotinylated cyno TIGIT IgV domain. How it is done:
as §2, §3

Assay [4] concerns the target T4, recombinant mouse TIGIT IgV domain (mouse, UniProt P86176 29-145).
T4 construct: Made in NS0 cells, purified on Strep-Tactin XT; Biotinylated for phage panning; also called biotinylated mouse TIGIT IgV domain
T4 sequence: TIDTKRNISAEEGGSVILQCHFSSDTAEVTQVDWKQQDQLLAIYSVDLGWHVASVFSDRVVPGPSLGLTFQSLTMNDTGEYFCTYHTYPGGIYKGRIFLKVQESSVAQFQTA
Description: ELISA on coated recombinant TIGIT IgV domain. On the procedure:
To assess species cross-reactivity of anti-TIGIT antibodies 7D4, 2C9, and 3A9, ELISA binding assays to human, cynomolgus monkey, and mouse TIGIT were performed. 1 μg/ml each of human, cyno (R&D Systems, Inc., #9380-TG), and mouse TIGIT in 50 μl of DPBS were coated on 96-well plates at 4° C. for overnight. After washing the plates with phosphate-buffered saline containing 0.05% of Tween 20 (PBST), a sequential dilution of 7D4, 2C9, and 3A9 antibodies was added separately and the plates were incubated at 37° C. for 1 hour. After washing the plates three times with PBST, the plates were incubated with an anti-mouse Fey polyclonal antibody conjugated with horseradish peroxidase (HRP) at 37° C. for 1 hour. After washing the plates three times with PBST, 100 μl of 3,3′,5,5′-tetra-methylbenzidine (TMB) substrate (Thermo Fisher Scientific, #34018) were added into each well. After 5 to 10 min of color development, 50 μl of stop solution (2 N of HCl) were added into each well and plates were read by spectrophotometer at a wavelength of 450 nm.

Assay [5] has as its target T5, TIGIT-biotin (TIGIT:CD155 Homogeneous Assay Kit, #72029) (human, UniProt Q495A1 22-141, limits assumed, biotin (site not stated)).
T5 construct: Kit reagent; also called human TIGIT
T5 chain: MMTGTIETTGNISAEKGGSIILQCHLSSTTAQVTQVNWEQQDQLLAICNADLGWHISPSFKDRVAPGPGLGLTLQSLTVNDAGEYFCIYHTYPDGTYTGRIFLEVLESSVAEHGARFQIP
Description: AlphaLISA competition: TIGIT-biotin with antibody, then histidine-tagged CD155 as competitor. On the procedure:
To evaluate inhibition of binding of TIGIT to CD155 by anti-TIGIT antibodies, AlphaLISA assays were performed using a TIGIT:CD155 Homogeneous Assay Kit (PBS Biosciences, #72029). Aliquots (6 μl) of solution containing TIGIT-biotin (final concentration 0.2 ng/μl) and 4-fold serial dilution of the test antibodies (final volume 2 μl) were added into a 384-well plate. The plates were covered with a lid and incubated at room temperature for 30 min. Then, 2 μl of histidine-tagged CD155 were added (final concentration 0.05 ng/μl) into each well and incubated at room temperature for 60 min. Finally, aliquots (5 μl) of streptavidin-conjugated donor beads (final concentration 10 μg/ml) and 5 μl of anti-His tag acceptor beads (final concentration 20 μg/ml) were added and the plate was incubated at room temperature for 30 min in the dark. AlphaLISA signals were measured on an EnSpire Alpha 2390 (Perkin-Elmer Life Sciences). 15A6 (U.S. Pat. No. 10,189,902) and MBSA43 (Thermo Fisher Scientific, #16-9500-82) were used as reference antibodies.
These antibodies were selected for further functional studies.

Assay [6] deals with T1, human TIGIT expressed on cells …. Briefly: flow cytometry on TIGIT/Jurkat cells. How it is done: Sequential dilutions of Protein A column-purified 7D4, 2C9, and 3A9 antibodies were separately incubated with 5×10⁵ of human TIGIT-expressing Jurkat cells (TIGIT/Jurkat) in 50 μl of FACS buffer (0.2% BSA in Dulbecco's phosphate-buffered saline (DPBS) containing 0.09% sodium azide) on ice for 1 hour. After washing, the cells were stained with anti-mouse IgG conjugated with PE dyes and antibody binding strength was analyzed by flow cytometry.

T3 sequence (chain, as listed by the source limits assumed): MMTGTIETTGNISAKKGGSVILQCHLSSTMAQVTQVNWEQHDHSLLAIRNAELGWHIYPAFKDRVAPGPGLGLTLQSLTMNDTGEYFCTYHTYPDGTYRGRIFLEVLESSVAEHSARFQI

B1: hz7D4 hIgG1 (antibody, V domains shown)
VH: EVQLVQSGGGLVKPGGSLRLSCAASGYTFTNYWIGWVRQTPGKGLEWVGDIYPGSSFTNSNEKFKGRFTISADKSKNTAYLQMNSLRAEDTAVYYCARLGRGYWYFDVWGQGTLVTVSS
VL: DIVLTQSPATLSASLGERATLSCSASSSVSYIHWYQQKPGQAPKLLIYTTSNLASGVPSRFSGSGSGTDFTLTISSLEAEDFATYYCHQWSRYPTFGGGTKLEIK
notes: Human IgG1 (vector pFUSE-CHIg-hIG1) with human kappa constant region, made in CHO-S cells; also called humanized 7D4; hz7D4 human IgG1
With B1, the IC50 in assay [1] came to 0.2 nM; in assay [2], 0.3 nM.

B2: 1A11 scFv phage clone (scFv, V domains shown)
VH: EVQLVQSGGGLVKPGGSLRLSCAASGYTFTNYWIGWVRQTPGKGLEWVGDIYPGSSFTNSNEKFKGRFTISADKSKNTAYLQMNSLRAEDTAVYYCARLGRGYWYFDVWGQGTLVTVSS
VL: DIVLTQSPATLSASLGERATLSCSASSSVSYIHWYQQKPGQAPKLLIYTTSNLASGVPSRFSGSGSGTDFTLTISSLEAEDFATYYCQLFRSGSAFGGGTKLEIK
Turning to B2, the binding result (in assay [3]; in the assay with cyno TIGIT IgV domain) was “binds” in each case.

B3: 7D4 (antibody, V domains shown)
VH: QVQLKHSGAELVRPGTSVKMSCKASGYTFTNYWIGWAKQRPGHGLEWIGDIYPGSSFTNSNEKFKGKATLTADKSSSTAYMQFSSLTSEDSAIYYCAKLGRGYWYFDVWGTGTSVTVSA
VL: DIVLTQSPAIMSASLGEEITLTCSASSSVSYIHWYQQKSGTSPKLLIYTTSNLASGVPSRFSGSGSGTFYSLTISSVEAEDAADYYCHQWSRYPTFGGGTKLEIK
notes: Mouse monoclonal antibody from hybridoma clone 7D4, Protein A purified; also called anti-TIGIT monoclonal antibody 7D4; parental mouse 7D4 antibody
Take B3: in assay [4], the EC50 amounted to 10.5 nM. Also, the IC50 in assay [5] is 0.32 nM. Moreover, in assay [6], the Kd is 0.27 nM.

The record behind these values is patent publication US20230416362A1 (INDUSTRIAL TECHNOLOGY RESEARCH INSTITUTE, published 2023).
